In general, Kd refers to the concentration at which binding is half-saturated.

Changes are numbered by the printed parent chain. Names may count otherwise.

Data set [1] addresses T1, METTL15^70–407 (Homo sapiens, UniProt A6NJ78, D119A).
T1 construct: residues 70-407; N-terminal SUMO tag cleaved with ULP1; E. coli Rosetta (DE3)
T1 sequence (A6NJ78 70-407 D119A): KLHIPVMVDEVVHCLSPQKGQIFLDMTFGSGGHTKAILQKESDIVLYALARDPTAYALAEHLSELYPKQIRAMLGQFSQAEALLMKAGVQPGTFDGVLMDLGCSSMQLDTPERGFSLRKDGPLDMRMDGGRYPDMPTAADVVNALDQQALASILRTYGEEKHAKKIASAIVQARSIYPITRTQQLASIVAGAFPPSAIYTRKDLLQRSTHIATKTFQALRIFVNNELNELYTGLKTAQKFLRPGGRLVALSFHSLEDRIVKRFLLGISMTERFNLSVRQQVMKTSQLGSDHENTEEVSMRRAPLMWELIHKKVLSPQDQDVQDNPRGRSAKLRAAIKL
Put plainly: isothermal titration calorimetry. It counts as binding. (In general: ITC needs no label: the signal is the heat of the interaction.)

The target in data set [2] is T2, METTL15^70–407 (Homo sapiens, UniProt A6NJ78).
T2 construct: residues 70-407; N-terminal SUMO tag cleaved with ULP1; E. coli Rosetta (DE3)
T2 sequence (A6NJ78 70-407): T1 sequence (A6NJ78 70-407 D119A) with A50D
As to the kind of experiment: isothermal titration calorimetry. It counts as binding.

For data set [3], the target named is T3, METTL15 WT (Homo sapiens, UniProt A6NJ78 70-407).
T3 sequence: T1 sequence (A6NJ78 70-407 D119A) with A50D
As to the kind of experiment: fluorescence polarization; FP: dilution buffer B (50 mM Na2HPO4, 150 mM NaCl, pH 7.0), 20 C, 15 min incubation, 80 nM FAM-RNA stock mixed 1:1 (40 nM final); 1:1 binding model. The note with it: protein: recombinant, tags: SUMO tag removed (ULP1), label: 5'-FAM. (In general: In fluorescence polarisation assays a small probe gives low polarisation when free and higher when bound to something large.)

The target in data set [4] is T4, METTL15 WT;hsRBFA C-terminal helix (Homo sapiens;Homo sapiens, UniProt A6NJ78;Q8N0V3 70-407;226-260, |).
T4 sequence 1: T1 sequence (A6NJ78 70-407 D119A) with A50D
T4 sequence 2: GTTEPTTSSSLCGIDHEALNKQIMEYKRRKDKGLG
Put plainly: fluorescence polarization; +hsRBFA 226-260; FP: dilution buffer B (50 mM Na2HPO4, 150 mM NaCl, pH 7.0), 20 C, 15 min incubation, 80 nM FAM-RNA stock mixed 1:1 (40 nM final); 1:1 binding model. As to conditions: protein: recombinant;recombinant, tags: SUMO tag removed (ULP1);GST tag removed (TEV), copies: 1;1, label: 5'-FAM.

The target of data set [5] is METTL15^70–407 (human METTL15, residues 70–407), wild type (human, UniProt A6NJ78 70-407). Put plainly: ITC; Microcal PEAQ-ITC, 20 °C, buffer B (50 mM Na2HPO4, 150 mM NaCl, pH 7.0); hsRBFA 600 μM and METTL15 40 μM; single binding site model. The note with it: both partners purified.
Data set [6] concerns the target METTL15^70–407 D209A (human, UniProt A6NJ78 70-407, D209A). The description is as above. As to conditions: both partners purified.
Data set [7] deals with METTL15^70–407 N212A (human, UniProt A6NJ78 70-407, N212A). The data set is described as above. As to conditions: both partners purified.
In data set [8] the target is T5, METTL15 H231A/K234A/F262A (Homo sapiens, UniProt A6NJ78 70-407, H231A;K234A;F262A).
T5 sequence: T1 sequence (A6NJ78 70-407 D119A) with A50D, H162A, K165A, F193A
Put plainly: fluorescence polarization; FP: dilution buffer B (50 mM Na2HPO4, 150 mM NaCl, pH 7.0), 20 C, 15 min incubation, 80 nM FAM-RNA stock mixed 1:1 (40 nM final); 1:1 binding model. The note with it: protein: recombinant; tags: SUMO tag removed (ULP1); label: 5'-FAM; hairpin.

In data set [9] the target is T6, METTL15 F262A/P263A/K270A (Homo sapiens, UniProt A6NJ78 70-407, F262A;P263A;R270A).
T6 sequence: T1 sequence (A6NJ78 70-407 D119A) with A50D, F193A, P194A, R201A
The data set is described as above. The note with it: protein: recombinant; tags: SUMO tag removed (ULP1); label: 5'-FAM; hairpin.

Data set [10] has as its target T7, METTL15 K380A/K381A (Homo sapiens, UniProt A6NJ78 70-407, K380A;K381A).
T7 sequence: T1 sequence (A6NJ78 70-407 D119A) with A50D, K311A, K312A
The description is as above. As to conditions: protein: recombinant; tags: SUMO tag removed (ULP1); label: 5'-FAM; hairpin.

Data set [11] deals with T8, METTL15 R327A/K330A/R331A (Homo sapiens, UniProt A6NJ78 70-407, R327A;K330A;R331A).
T8 sequence: T1 sequence (A6NJ78 70-407 D119A) with A50D, R258A, K261A, R262A
The data set is described as above. As to conditions: protein: recombinant; tags: SUMO tag removed (ULP1); label: 5'-FAM; hairpin.

Consider `C[S+](CC[C@H](N)C(=O)O)C[C@H]1O[C@@H](n2cnc3c(N)ncnc32)[C@H](O)[C@@H]1O` (some centres unmarked) [SAM], for which the values for the Kd in data set [1] and in data set [2] were 17300 ± 310 nM and 2990 ± 360 nM, respectively.

With CGACCGGAAGCGGUCG (structured_RNA) [5'-FAM-h44_dsRNA2], the Kd in [3] (hairpin) was 770 ± 50 nM.

Take CACACCGCCCGUCAC (ssRNA) [5'-FAM-h44_ssRNA3]: the Kd was 1760 ± 160 nM in [4] and 2200 ± 330 nM in data set [3].

With CGACACCGCCCGUAACGGUGUCG (structured_RNA) [5'-FAM-h44_dsRNA4], in data set [3] (hairpin), the Kd amounted to 2330 ± 130 nM.

In [5], GTTEPTTSSSLCGIDHEALNKAIMEYKRRKDKGLG (domain or fragment, human, UniProt Q8N0V3 226-260, looked up) [hsRBFA^226–260 Q247A] returned a Kd of 410 nM and a dH of -11.5 ± 0.2 kcal/mol.

In [5], GTTEPTTSSSLCGIDHEALNKQIMEYARRKDKGLG (domain or fragment, human, UniProt Q8N0V3 226-260, looked up) [hsRBFA^226–260 K252A] had a Kd of 19600 nM and a dH of -17.2 ± 3.1 kcal/mol.

In data set [5], GTTEPTTSSSLCGIDHEALAKQIMEYKRRKDKGLG (domain or fragment, human, UniProt Q8N0V3 226-260, looked up) [hsRBFA^226–260 N245A] had a Kd of 610 nM and a dH of -10.6 ± 0.2 kcal/mol.

Consider GTTEPTTSSSLCGIDHEALNKQIMEYKRRKDKGLG (domain or fragment, UniProt Q8N0V3 226-260, looked up) [hsRBFA^226–260 (human hsRBFA, residues 226–260), wild type], for which, in data set [6], binding was characterised by a dissociation constant (Kd) of 7940 nM and the dH is -7.43 ± 0.32 kcal/mol. In data set [7], this molecule displayed a Kd of 1120 nM and a dH of -9.5 ± 0.34 kcal/mol.

Take AAAAAAAAAAAAA (ssRNA) [5'-FAM-polyA13]: the Kd in data set [3] was determined as 610 ± 110 nM.

Take CGACCGCCCGUAACGGUCG (structured_RNA) [5'-FAM-h44_dsRNA1]: the Kd was 1150 ± 80 nM in [4] (hairpin), 2680 ± 290 nM in data set [10], 1100 ± 90 nM in [3] (hairpin) and 1030 ± 150 nM in [11]. In addition, the binding result in data set [8] and in [9] was “no binding” throughout.

The record behind these values is article PMC10828496 (Cell Discovery, 2024).
